In patent EP1757701A1:
pKd: −log10 of the molar value.

Key:
Y0317-570 Fab [1] = experiment: BIAcore, 1:1 Langmuir model: Herceptin dissociating from Y0317-570 Fab held on immobilized VEGF
Y0317-570 Fab [2] = experiment: BIAcore; estimated from the observed koff with an assumed kon

- dissociation half-life (t1/2) (Y0317-570 Fab [1]): 8.5 min
- pKd (Y0317-570 Fab [2]): 6.52 to 7.52
Substance: 4D5-IgG, also known as Herceptin® (antibody)
